pKd: −log10 of the molar value.
Legend:
[1] = target: pseudo-wt PI4KB labeled with Atto488 (human) (UniProt Q9UBF8); assay: fluorescence cross-correlation spectroscopy (FCCS); on GUV membrane; Atto488-PI4KB attached by tethered ACBD3; mCherry-Rab11-His tethered to the membrane via His tag; proteins approximately 50 nM
14-3-3 = 14-3-3 (UniProt P63104); assay: AUC; sedimentation velocity, SEC buffer, 20 °C, 42 000 rpm; 14-3-3 + P-PI4KB + Rab11; stoichiometries independent of Rab11 nucleotide state
[2] = target: phosphorylated PI4KB (residues 128-799, internal deletion 423-522, T292R, phosphorylated at S294 by PKA) (human) (UniProt Q9UBF8); assay: as above
PI4KB (Homo sapiens) = PI4KB (Homo sapiens) (UniProt Q9UBF8); details: cited from earlier work
[3] = target: phosphorylated PI4KB (residues 128-799, internal deletion 423-522, T292R, phosphorylated at S294 by PKA) (human) (UniProt Q9UBF8); assay: AUC; sedimentation velocity, SEC buffer, 20 °C, 42 000 rpm; P-PI4KB alone (20 µM) and with Rab11; stoichiometries independent of Rab11 nucleotide state

Chain of phosphorylated PI4KB (residues 128-799, internal deletion 423-522, T292R, phosphorylated at S294 by PKA) (human) (Q9UBF8 other isoform, or with tags, fused parts or gaps with the stated changes): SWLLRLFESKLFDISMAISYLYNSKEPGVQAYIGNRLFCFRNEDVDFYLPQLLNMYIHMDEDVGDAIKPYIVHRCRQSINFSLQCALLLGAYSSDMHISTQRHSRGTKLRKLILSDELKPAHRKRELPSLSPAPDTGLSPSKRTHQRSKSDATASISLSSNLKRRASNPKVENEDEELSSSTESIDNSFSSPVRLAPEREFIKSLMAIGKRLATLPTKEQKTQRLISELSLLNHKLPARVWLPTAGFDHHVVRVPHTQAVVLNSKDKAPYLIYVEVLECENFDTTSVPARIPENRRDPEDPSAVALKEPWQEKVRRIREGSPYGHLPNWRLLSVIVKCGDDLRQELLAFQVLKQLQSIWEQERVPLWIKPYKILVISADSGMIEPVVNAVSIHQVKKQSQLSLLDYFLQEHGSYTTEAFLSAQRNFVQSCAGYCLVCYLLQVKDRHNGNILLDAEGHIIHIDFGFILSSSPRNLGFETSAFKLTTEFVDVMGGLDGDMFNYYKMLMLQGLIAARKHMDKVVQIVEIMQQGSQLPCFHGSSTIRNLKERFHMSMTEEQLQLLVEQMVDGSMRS
Chain of pseudo-wt PI4KB labeled with Atto488 (human) (Q9UBF8 other isoform, or with tags, fused parts or gaps): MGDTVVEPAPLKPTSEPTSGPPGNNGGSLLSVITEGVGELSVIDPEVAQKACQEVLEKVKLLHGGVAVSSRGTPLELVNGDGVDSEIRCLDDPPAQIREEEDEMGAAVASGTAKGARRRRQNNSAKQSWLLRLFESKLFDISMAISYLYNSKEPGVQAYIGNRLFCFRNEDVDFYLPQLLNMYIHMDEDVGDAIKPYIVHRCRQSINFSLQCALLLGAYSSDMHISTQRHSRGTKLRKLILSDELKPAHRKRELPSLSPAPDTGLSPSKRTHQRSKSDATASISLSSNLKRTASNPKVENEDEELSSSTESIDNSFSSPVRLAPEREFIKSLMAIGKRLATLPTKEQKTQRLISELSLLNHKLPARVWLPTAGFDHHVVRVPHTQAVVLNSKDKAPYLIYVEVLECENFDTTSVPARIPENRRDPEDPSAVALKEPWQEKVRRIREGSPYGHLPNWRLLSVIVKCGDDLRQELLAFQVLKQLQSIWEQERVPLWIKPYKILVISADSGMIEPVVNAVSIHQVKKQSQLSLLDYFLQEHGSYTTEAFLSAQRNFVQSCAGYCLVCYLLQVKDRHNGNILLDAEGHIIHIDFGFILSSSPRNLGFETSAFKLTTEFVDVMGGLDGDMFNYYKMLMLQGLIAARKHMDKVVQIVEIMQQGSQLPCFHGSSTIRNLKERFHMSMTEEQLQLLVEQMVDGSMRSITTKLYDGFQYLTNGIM
Chain of PI4KB (Homo sapiens) (Q9UBF8 2-816): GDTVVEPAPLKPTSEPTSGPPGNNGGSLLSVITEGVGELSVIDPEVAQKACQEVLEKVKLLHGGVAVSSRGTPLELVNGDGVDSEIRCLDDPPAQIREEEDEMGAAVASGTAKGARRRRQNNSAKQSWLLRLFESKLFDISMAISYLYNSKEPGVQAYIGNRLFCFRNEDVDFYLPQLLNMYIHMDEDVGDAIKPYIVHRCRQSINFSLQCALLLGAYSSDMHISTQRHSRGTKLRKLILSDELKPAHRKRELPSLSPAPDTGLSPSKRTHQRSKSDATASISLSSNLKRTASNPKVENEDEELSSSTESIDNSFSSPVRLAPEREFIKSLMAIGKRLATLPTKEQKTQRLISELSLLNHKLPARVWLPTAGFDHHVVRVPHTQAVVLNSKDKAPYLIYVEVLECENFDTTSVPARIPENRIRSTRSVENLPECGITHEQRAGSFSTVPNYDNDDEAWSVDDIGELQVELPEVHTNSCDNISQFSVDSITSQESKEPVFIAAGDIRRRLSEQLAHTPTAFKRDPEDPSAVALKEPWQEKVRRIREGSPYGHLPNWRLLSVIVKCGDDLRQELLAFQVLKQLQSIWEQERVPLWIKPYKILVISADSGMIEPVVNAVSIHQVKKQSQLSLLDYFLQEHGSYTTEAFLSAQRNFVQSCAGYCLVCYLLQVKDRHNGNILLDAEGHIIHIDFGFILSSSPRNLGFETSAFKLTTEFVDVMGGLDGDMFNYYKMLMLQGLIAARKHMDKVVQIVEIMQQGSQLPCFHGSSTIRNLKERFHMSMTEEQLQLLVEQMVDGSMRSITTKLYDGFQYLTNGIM
Chain of ACBD3 (Q9H3P7 whole entry): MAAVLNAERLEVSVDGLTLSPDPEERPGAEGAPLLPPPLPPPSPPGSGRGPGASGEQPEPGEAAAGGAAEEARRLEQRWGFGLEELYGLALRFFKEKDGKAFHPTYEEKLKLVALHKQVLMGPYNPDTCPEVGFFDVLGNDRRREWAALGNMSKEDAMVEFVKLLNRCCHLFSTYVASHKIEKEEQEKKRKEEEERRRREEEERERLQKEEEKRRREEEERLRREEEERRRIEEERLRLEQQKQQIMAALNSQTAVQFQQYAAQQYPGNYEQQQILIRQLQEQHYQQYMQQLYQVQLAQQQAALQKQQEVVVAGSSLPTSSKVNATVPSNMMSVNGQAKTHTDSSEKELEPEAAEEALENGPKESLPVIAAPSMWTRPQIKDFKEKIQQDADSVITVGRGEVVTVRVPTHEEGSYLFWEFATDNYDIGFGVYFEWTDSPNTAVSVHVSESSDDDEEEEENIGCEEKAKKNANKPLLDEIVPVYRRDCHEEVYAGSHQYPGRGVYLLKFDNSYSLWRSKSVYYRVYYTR

Substance: mCherry-Rab11-His (membrane tethered) (from UniProt P62491 1-216) (natural protein)
- percent of Rab11 in the complex [1]: 10%

Substance: 14-3-3 (from UniProt P63104 1-230) (natural protein)
- stoichiometry N (14-3-3): 2
- stoichiometry N (14-3-3 chains per PI4KB) [2]: 2

Substance: ACBD3 (from UniProt Q9H3P7)
- pKd (PI4KB (Homo sapiens)): 6.52

Substance: Rab11 (from UniProt P62491 1-216) (natural protein)
- stoichiometry N [2]: 1
- stoichiometry N [3]: 1

Source: article PMC6345845
